The record followed here is US20180291335A1, “MODIFIED POLYNUCLEOTIDES FOR ALTERING CELL PHENOTYPE” (ModernaTX, Inc., priority 2012, published 2018).

Holding throughout (format): cell-based, human
One data set relates to interferon-alpha (IFN-α). The data set can be described thus: In vitro screening in PBMC: interferon-alpha induction by ELISA. The text has this:
(§1) The supernatant was harvested and stored frozen until analyzed by ELISA to determine the G-CSF protein expression, and the induction of the cytokines interferon-alpha (IFN-α) and tumor necrosis factor alpha (TNF-α).

The subject of data set [1] is HeLa cells. The data set can be described thus: G-CSF modified mRNA transfected in HeLa cells, G-CSF ELISA. Details: key to Protein (G-CSF; HeLa): the protein production of HeLa is judged by “+,” “+1-” and “−”; the protein production of HeLa is judged by “+,” “+1-” and “−”; the protein production of HeLa is judged by “+,” “+1-” and “−”. The method, then:
To assess the activity of all our different chemical modifications in the context of a second open reading frame, we replicated experiments previously conducted using luciferase mRNA, with human G-CSF mRNA. […] The mutant T7 polymerase was obtained commercially (Durascribe® T7 Transcription kit (Cat. No. DS010925) (Epicentre®, Madison, Wis.).
The modified RNA in Tables 27 and 28 were transfected in vitro in HeLa cells or added to rabbit reticulysates (250 ng of modified mRNA) as indicated. […] In Table 27, “NT” means not tested.
(In general: An ELISA detects its analyte on a solid surface through an enzyme-linked reagent.)

Data set [2] has as its system HeLa cells. The data set can be described thus: In vitro screening in HeLa cells, luciferase modified RNA. Details: key to Protein (Luc; HeLa): the protein production of HeLa is judged by “+,” “+1-” and “−”; the protein production of HeLa is judged by “+,” “+1-” and “−”; the protein production of HeLa is judged by “+,” “+1-” and “−”. Here is the method:
The day before transfection, 20,000 HeLa cells (ATCC no. CCL-2; Manassas, Va.) were harvested by treatment with Trypsin-EDTA solution (LifeTechnologies, Grand Island, N.Y.) and seeded in a total volume of 100 ul EMEM medium (supplemented with 10% FCS and 1× Glutamax) per well in a 96-well cell culture plate (Corning, Manassas, Va.). The cells were grown at […] in 5% CO2 atmosphere overnight. […] Lipofectamine 2000 (LifeTechnologies, Grand Island, N.Y.) was used as transfection reagent and 0.2 ul were diluted in 10 ul final volume of OPTI-MEM. After 5 minutes of incubation at room temperature, both solutions were combined and incubated an additional 15 minute at room temperature. Then the 20 ul combined solution was added to the 100 ul cell culture medium containing the HeLa cells and incubated at room temperature.
After 18 to 22 hours of incubation cells expressing luciferase were lysed with 100 ul of Passive Lysis Buffer (Promega, Madison, Wis.) according to manufacturer instructions. Aliquots of the lysates were transferred to white opaque polystyrene 96-well plates (Corning, Manassas, Va.) and combined with 100 ul complete luciferase assay solution (Promega, Madison, Wis.). The lysate volumes were adjusted or diluted until no more than 2 mio relative light units (RLU) per well were detected for the strongest signal producing samples and the RLUs for each chemistry tested are shown in Table 19. The plate reader was a BioTek Synergy H1 (BioTek, Winooski, Vt.). The background signal of the plates without reagent was about 200 relative light units per well.

Data set [3] relates to peripheral blood mononuclear cells (PBMC). The data set can be described thus: In vitro screening in PBMC: G-CSF protein expression by ELISA. The note with it: Table 30, non-naturally occurring chemistries; G-CSF modified mRNA in PBMC; background about 110 pg/ml.
Excerpt: as §1

Another data set concerns IFN-alpha. The data set can be described thus: In vitro PBMC study, percent modification: IFN-alpha expression by ELISA. The settings on record: for Average IFN-a / G-CSF/IFN-alpha (PC ratio): PBMC; for Average IFN-a: average of three donors; for G-CSF/IFN-alpha (PC ratio): protein/cytokine ratio from averages. Here is the method:
(§2) The supernatant was harvested and run by ELISA 22 hours after transfection to determine the protein expression.

In a further data set the test system is TNF-alpha. The data set can be described thus: In vitro PBMC study, percent modification: TNF-alpha expression by ELISA. The note with it: for Average TNF-a / G-CSF/TNF-alpha (PC ratio): PBMC; for Average TNF-a: average of three donors; for G-CSF/TNF-alpha (PC ratio): protein/cytokine ratio from averages. The method, then: as §2
Data set [4] has as its system peripheral blood mononuclear cells (PBMC). The data set can be described thus: In vitro PBMC study, percent modification: G-CSF expression by ELISA. The settings on record: for G-CSF Expression: 22 hours after transfection; for Average G-CSF: PBMC, average of three donors. Here is the method:
480 ng of G-CSF mRNA modified with 5-methylcytosine (5mC) and pseudouridine (pseudoU) or unmodified G-CSF mRNA was transfected with 0.4 uL of Lipofectamine 2000 into peripheral blood mononuclear cells (PBMC) from three normal blood donors (D1, D2, and D3). […] The supernatant was harvested and run by ELISA 22 hours after transfection to determine the protein expression. The expression of IFN-alpha and TNF-alpha may be a secondary effect from the transfection of the G-CSF mRNA.

Setting [5] is: Table 30, non-naturally occurring chemistries, IFN-alpha from G-CSF modified mRNA in PBMC, background about 70 pg/ml.
Where [6] appears, read: Table 30, non-naturally occurring chemistries, G-CSF modified mRNA in HeLa.
Where [7] appears, read: Table 30, non-naturally occurring chemistries, luciferase modified mRNA in HeLa, ** = second result, IVT with mutant T7 polymerase.
Where [8] appears, read: PBMC donor D1, 22 hours after transfection.
The mark [9] stands for this setting: PBMC donor D2, 22 hours after transfection.
Where [10] appears, read: PBMC donor D3, 22 hours after transfection.

For `COC(=O)C=Cc1cn([C@@H]2O[C@H](CO)[C@@H](O)[C@H]2O)c(=O)[nH]c1=O` [5-(2-carbomethoxyvinyl) Uridine], the “Cytokines (G-CSF; PBMC)” value with interferon-alpha (IFN-α) (setting [5]) is “− (“−” means less than 100 pg/ml)”. In the data set on HeLa cells [1] (setting [6]), the “Protein (G-CSF; HeLa)” value is reported as “−”. For the same molecule, the “Protein (Luc; HeLa)” value with HeLa cells [2] (setting [7]) is given as “−”.

For 5-Br-Uridine [Compound 5-Br-Uridine], in the data set on interferon-alpha (IFN-α) (setting [5]), the “Cytokines (G-CSF; PBMC)” value is reported as “+ (“+” means greater than 100 pg/ml IFN-alpha)”. Further, the “Protein (G-CSF; HeLa)” value in the data set on HeLa cells [1] (setting [6]) was “+”. Also, the “Protein (Luc; HeLa)” value with HeLa cells [2] (setting [7]) is recorded as “+”. The “Protein (G-CSF; PBMC)” value in data set [3] is given as “+ (“+” means greater than 300 pg/ml G-CSF)”.

For the molecule 2′-F-adenosine, in the data set on HeLa cells [2] (setting [7]), the “Protein (Luc; HeLa)” value is listed as “−**”.

In the case of N^6-methyladenosine (m^6A), the “Cytokines (G-CSF; PBMC)” value with interferon-alpha (IFN-α) (summary grade, IFN-alpha, G-CSF mRNA in PBMC) is “++++ (“++++” means greater than 1,000 pg/ml interferon-alpha (IFN-alpha))”. Further, the “Protein (G-CSF; HeLa)” value in the data set with HeLa cells [1] (summary grade, G-CSF mRNA in HeLa) is listed as “−”. For the same molecule, the “Protein (Luc; HeLa)” value with HeLa cells [2] (summary grade, luciferase mRNA in HeLa) was “−”.

B1: 75% modification: G-CSF mRNA (SEQ ID NO: 408) partially modified with 5mC and pseudoU, 75% modification (nucleic acid)
chain: GGGAAAUAAGAGAGAAAAGAAGAGUAAGAAGAAAUAUAAGAGCCACCAUGGCCGGUCCCGCGACCCAAAGCCCCAUGAAACUUAUGGCCCUGCAGUUGCUGCUUUGGCACUCGGCCCUCUGGACAGUCCAAGAAGCGACUCCUCUCGGACCUGCCUCAUCGUUGCCGCAGUCAUUCCUUUUGAAGUGUCUGGAGCAGGUGCGAAAGAUUCAGGGCGAUGGAGCCGCACUCCAAGAGAAGCUCUGCGCGACAUACAAACUUUGCCAUCCCGAGGAGCUCGUACUGCUCGGGCACAGCUUGGGGAUUCCCUGGGCUCCUCUCUCGUCCUGUCCGUCGCAGGCUUUGCAGUUGGCAGGGUGCCUUUCCCAGCUCCACUCCGGUUUGUUCUUGUAUCAGGGACUGCUGCAAGCCCUUGAGGGAAUCUCGCCAGAAUUGGGCCCGACGCUGGACACGUUGCAGCUCGACGUGGCGGAUUUCGCAACAACCAUCUGGCAGCAGAUGGAGGAACUGGGGAUGGCACCCGCGCUGCAGCCCACGCAGGGGGCAAUGCCGGCCUUUGCGUCCGCGUUUCAGCGCAGGGCGGGUGGAGUCCUCGUAGCGAGCCACCUUCAAUCAUUUUUGGAAGUCUCGUACCGGGUGCUGAGACAUCUUGCGCAGCCGUGAAGCGCUGCCUUCUGCGGGGCUUGCCUUCUGGCCAUGCCCUUCUUCUCUCCCUUGCACCUGUACCUCUUGGUCUUUGAAUAAAGCCUGAGUAGGAAG
modifications: 75% 5mC/pseudoU modified; Description of Artificial Sequence: Synthetic Transcript Sequence
Regarding B1, the entries for the “IFN-alpha Expression” value in the data set with IFN-alpha (setting [8]), in the data set on IFN-alpha (setting [9]) and in the data set on IFN-alpha (setting [10]) were 339.6 pg/mL, 107.6 pg/mL and 160.9 pg/mL, respectively. The “Average IFN-a” value with IFN-alpha is 202 pg/mL. Besides, the “G-CSF/IFN-alpha (PC ratio)” value in the data set with IFN-alpha is 3.1. Also, the “TNF-alpha Expression” value came to 107.4 pg/mL in the data set on TNF-alpha (setting [8]), 21.7 pg/mL in the data set with TNF-alpha (setting [9]) and 11.8 pg/mL with TNF-alpha (setting [10]). For the same molecule, the “Average TNF-a” value in the data set with TNF-alpha is 47 pg/mL. Also, in the data set on TNF-alpha, the “G-CSF/TNF-alpha (PC ratio)” value worked out at 13. In addition, the “G-CSF Expression” value was 566.7 pg/mL in data set [4] (PBMC donor D1, 480 ng mRNA); 631.4 pg/mL in data set [4] (PBMC donor D2, 480 ng mRNA); 659.5 pg/mL in data set [4] (PBMC donor D3, 480 ng mRNA). Also, the “Average G-CSF” value in data set [4] is 619 pg/mL.

B2: 25% modification: G-CSF mRNA (SEQ ID NO: 408) partially modified with 5mC and pseudoU, 25% modification (nucleic acid)
chain: B1 chain
modifications: 25% 5mC and pseudoU modification; Description of Artificial Sequence: Synthetic Transcript Sequence
Consider B2, for which the “IFN-alpha Expression” value with IFN-alpha (setting [8]) turned out to be 564.3 pg/mL; in the data set on IFN-alpha (setting [9]) it was 400.4 pg/mL; in the data set with IFN-alpha (setting [10]), 670.7 pg/mL. The “Average IFN-a” value in the data set with IFN-alpha was 545 pg/mL. Further, the “G-CSF/IFN-alpha (PC ratio)” value in the data set on IFN-alpha was 0.2. For the same molecule, the entries for the “TNF-alpha Expression” value in the data set with TNF-alpha (setting [8]), in the data set with TNF-alpha (setting [9]) and in the data set on TNF-alpha (setting [10]) were 85.6 pg/mL, 26.6 pg/mL and 19.8 pg/mL, respectively. The “Average TNF-a” value with TNF-alpha was found to be 44 pg/mL. Also, the “G-CSF/TNF-alpha (PC ratio)” value with TNF-alpha was 2.8. For the same molecule, the “G-CSF Expression” value turned out to be 139.3 pg/mL in data set [4] (PBMC donor D1, 480 ng mRNA); 126.9 pg/mL in data set [4] (PBMC donor D2, 480 ng mRNA); 102.0 pg/mL in data set [4] (PBMC donor D3, 480 ng mRNA). For the same molecule, the “Average G-CSF” value in data set [4] worked out at 122 pg/mL.

B3: 2′Fluoroguanine triphosphate/pseudouridine: G-CSF mRNA (SEQ ID NO: 408) fully modified with the named combination (nucleic acid)
chain: B1 chain
modifications: 2'-fluoroguanine/pseudouridine modified; Description of Artificial Sequence: Synthetic Transcript Sequence
Take B3: the “G-CSF protein (pg/ml) HeLa cells” value in the data set with HeLa cells [1] (HeLa cells, combination chemistries, ELISA) is given as 1,136 pg/ml.

B4: 50% modification: G-CSF mRNA (SEQ ID NO: 408) partially modified with 5mC and pseudoU, 50% modification (nucleic acid)
chain: B1 chain
modifications: 50% 5mC/pseudoU modified; Description of Artificial Sequence: Synthetic Transcript Sequence
With B4, the “IFN-alpha Expression” value with IFN-alpha (setting [8]) came out at 478.9 pg/mL; with IFN-alpha (setting [9]), 261.1 pg/mL; in the data set with IFN-alpha (setting [10]), 389.7 pg/mL. Moreover, in the data set on IFN-alpha, the “Average IFN-a” value stood at 376 pg/mL. Also, the “G-CSF/IFN-alpha (PC ratio)” value in the data set on IFN-alpha turned out to be 0.5. In addition, the “TNF-alpha Expression” value with TNF-alpha (setting [8]) was 49.6 pg/mL; in the data set with TNF-alpha (setting [9]), 24.1 pg/mL; in the data set with TNF-alpha (setting [10]), 10.4 pg/mL. Besides, the “Average TNF-a” value in the data set with TNF-alpha stood at 28 pg/mL. In the data set with TNF-alpha, the “G-CSF/TNF-alpha (PC ratio)” value came out at 6.8. For the same molecule, the “G-CSF Expression” value in data set [4] (PBMC donor D1, 480 ng mRNA) is 188.9 pg/mL; in data set [4] (PBMC donor D2, 480 ng mRNA) it was 187.2 pg/mL; in data set [4] (PBMC donor D3, 480 ng mRNA) it was 191.9 pg/mL. In data set [4], the “Average G-CSF” value was found to be 189 pg/mL.
